Patent publication US20260242419A1, “A CYCLIC PEPTIDE FOR TRAPPING INTERLEUKIN-1 BETA” (Merck Sharp & Dohme LLC, priority 2023, published 2026)
Starred links: 1 amine or outer side, 2 acyl side, 3 side chain; linkers in the order of their positions; H or OH if unused. Non-standard residues stand in square brackets, D forms with d. 3Pal4Ph4CO2H = 4-[5-[(2S)-2-amino-2-carboxy-ethyl]-2-pyridyl]benzoic acid, O=C([C@H](Cc1ccc(-c2ccc(C(=O)[*:3])cc2)nc1)N[*:1])[*:2]; TyrEtNAc = (2S)-3-[4-(2-acetamidoethoxy)phenyl]-2-amino-propanoic acid, CC(=O)NCCOc1ccc(C[C@H](N[*:1])C(=O)[*:2])cc1; Trp(βS-Me,4-F) = C[C@@H](c1c[nH]c2cccc(F)c12)[C@H](N)C(=O)O; Bip(4'-COOH) = N[C@@H](Cc1ccc(-c2ccc(C(=O)O)cc2)cc1)C(=O)O; Ala(1-bicyclo(1.1.1)pentyl) = N[C@@H](CC12CC(C1)C2)C(=O)O; dPro(4R-Bzl(4-F)) = O=C(O)[C@H]1C[C@@H](Cc2ccc(F)cc2)CN1; Ala(morpholin-4-yl) = N[C@@H](CN1CCOCC1)C(=O)O; Ala(pyrimidin-5-yl) = N[C@@H](Cc1cncnc1)C(=O)O; Phe(4-COOH) = N[C@@H](Cc1ccc(C(=O)O)cc1)C(=O)O; Pro(cis-4-F) = O=C(O)[C@@H]1C[C@H](F)CN1; 4Pal = N[C@@H](Cc1ccncc1)C(=O)O; d(αMeS) = C[C@@](N)(CO)C(=O)O; αMeS = C[C@](N)(CO)C(=O)O; Dab = NCC[C@H](N)C(=O)O; Aib = CC(C)(N)C(=O)O

Target: Recombinant human IL-1β (BioLegend 579404) (human, UniProt P01584 117-269)
Assay: cell-based or functional assay

B1: SEQ ID NO: 26 (peptide)
peptide: cyclo([3Pal4Ph4CO2H][4Pal][Phe(4-COOH)]G[Pro(cis-4-F)][Trp(βS-Me,4-F)][Aib]EW[Aib][Ala(pyrimidin-5-yl)]Q[Dab]G[dPro(4R-Bzl(4-F))])
SMILES: C[C@@H](c1c[nH]c2cccc(F)c12)[C@@H]1NC(=O)[C@@H]2C[C@H](F)CN2C(=O)CNC(=O)[C@H](Cc2ccc(C(=O)O)cc2)NC(=O)[C@H](Cc2ccncc2)NC(=O)[C@H](Cc2ccc(-c3ccc(C(=O)O)cc3)nc2)NC(=O)[C@H]2C[C@@H](Cc3ccc(F)cc3)CN2C(=O)CNC(=O)[C@H](CCN)NC(=O)[C@H](CCC(N)=O)NC(=O)[C@H](Cc2cncnc2)NC(=O)C(C)(C)NC(=O)[C@H](Cc2c[nH]c3ccccc23)NC(=O)[C@H](CCC(=O)O)NC(=O)C(C)(C)NC1=O
In the case of B1, the “MRC5 IC50” value is reported as 35 pM.

B2: SEQ ID NO: 23 (peptide)
peptide: cyclo([Bip(4'-COOH)][4Pal][Phe(4-COOH)]G[Pro(cis-4-F)][Trp(βS-Me,4-F)][Aib]EW[d(αMeS)][Ala(pyrimidin-5-yl)]Q[Dab]G[dPro(4R-Bzl(4-F))])
SMILES: C[C@@H](c1c[nH]c2cccc(F)c12)[C@@H]1NC(=O)[C@@H]2C[C@H](F)CN2C(=O)CNC(=O)[C@H](Cc2ccc(C(=O)O)cc2)NC(=O)[C@H](Cc2ccncc2)NC(=O)[C@H](Cc2ccc(-c3ccc(C(=O)O)cc3)cc2)NC(=O)[C@H]2C[C@@H](Cc3ccc(F)cc3)CN2C(=O)CNC(=O)[C@H](CCN)NC(=O)[C@H](CCC(N)=O)NC(=O)[C@H](Cc2cncnc2)NC(=O)[C@@](C)(CO)NC(=O)[C@H](Cc2c[nH]c3ccccc23)NC(=O)[C@H](CCC(=O)O)NC(=O)C(C)(C)NC1=O
For B2, the “MRC5 IC50” value was 18 pM.

B3: SEQ ID NO: 25 (peptide)
peptide: cyclo([TyrEtNAc][Ala(1-bicyclo(1.1.1)pentyl)][Phe(4-COOH)]G[Pro(cis-4-F)][Trp(βS-Me,4-F)][Aib]EW[Aib][Ala(pyrimidin-5-yl)]Q[Dab]G[dPro(4R-Bzl(4-F))])
SMILES: CC(=O)NCCOc1ccc(C[C@@H]2NC(=O)[C@H]3C[C@@H](Cc4ccc(F)cc4)CN3C(=O)CNC(=O)[C@H](CCN)NC(=O)[C@H](CCC(N)=O)NC(=O)[C@H](Cc3cncnc3)NC(=O)C(C)(C)NC(=O)[C@H](Cc3c[nH]c4ccccc34)NC(=O)[C@H](CCC(=O)O)NC(=O)C(C)(C)NC(=O)[C@H]([C@@H](C)c3c[nH]c4cccc(F)c34)NC(=O)[C@@H]3C[C@H](F)CN3C(=O)CNC(=O)[C@H](Cc3ccc(C(=O)O)cc3)NC(=O)[C@H](CC34CC(C3)C4)NC2=O)cc1
B3 was tested, and the “MRC5 IC50” value was 53 pM.

B4: SEQ ID NO: 24 (peptide)
peptide: cyclo([Bip(4'-COOH)][4Pal][Phe(4-COOH)]G[Pro(cis-4-F)][Trp(βS-Me,4-F)][Aib]EW[Aib][Ala(pyrimidin-5-yl)]Q[Ala(morpholin-4-yl)]G[dPro(4R-Bzl(4-F))])
SMILES: C[C@@H](c1c[nH]c2cccc(F)c12)[C@@H]1NC(=O)[C@@H]2C[C@H](F)CN2C(=O)CNC(=O)[C@H](Cc2ccc(C(=O)O)cc2)NC(=O)[C@H](Cc2ccncc2)NC(=O)[C@H](Cc2ccc(-c3ccc(C(=O)O)cc3)cc2)NC(=O)[C@H]2C[C@@H](Cc3ccc(F)cc3)CN2C(=O)CNC(=O)[C@H](CN2CCOCC2)NC(=O)[C@H](CCC(N)=O)NC(=O)[C@H](Cc2cncnc2)NC(=O)C(C)(C)NC(=O)[C@H](Cc2c[nH]c3ccccc23)NC(=O)[C@H](CCC(=O)O)NC(=O)C(C)(C)NC1=O
For B4, the “MRC5 IC50” value was 49 pM.

In the case of cyclo([Bip(4'-COOH)][4Pal][Phe(4-COOH)]G[Pro(cis-4-F)][Trp(βS-Me,4-F)][αMeS]EW[Aib][Ala(pyrimidin-5-yl)]Q[Dab]G[dPro(4R-Bzl(4-F))]) [SEQ ID NO: 22], the “MRC5 IC50” value is reported as 27 pM.
